Assay results from publication PMC3935999, “Post-Translational Modifications Modulate Ligand Recognition by the Third PDZ Domain of the MAGUK Protein PSD-95” (PLoS ONE, 2014).

Experiments:
[1] = target: KKETAV hexapeptide (optimised consensus C-terminal ligand of PSD-95 PDZ3); test: ITC (MicroCal ITC-200); conditions: pH 7.5, 25 °C, no added salt stated (50 mM potassium phosphate only)
[2] = target: KKETAV hexapeptide (optimised consensus C-terminal ligand of PSD-95 PDZ3); test: ITC (quoted from ref. 19, Saro et al. 2007); conditions: pH 6.0, 25 °C, 10 mM NaCl, 20 mM MES; cited from earlier work
[3] = target: CRIPT (Homo sapiens); test: ITC; conditions: cited from earlier work
[4] = target: KKETAV peptide; test: ITC; conditions: cited from earlier work
[5] = target: CRIPT (Homo sapiens); test: ITC; conditions: cited from earlier work; remark: listed apart in the source
[6] = target: CRIPT (Homo sapiens); test: ITC; conditions: cited from earlier work; remark: listed apart in the source
[7] = target: T1, PDZ3 domain of PSD-95 (wild type, residues 302-403) (UniProt P31016 302-403); test: ITC; KKETAV (900 µM; 3 mM for D332P-PDZ3) injected into the protein in the cell (70 µM; 200 µM for D332P-PDZ3); 25°C; 50 mM potassium phosphate pH 7.5; single set of identical sites model; conditions: both partners purified
T1 construct: Postsynaptic density protein-95 (PSD-95; SAP-90; DLG-4), third PDZ domain with the α3 helix, residues 302-403 of the full PSD-95 protein; PDB 1BE9 is a longer construct of the same domain; 15N-labelled for NMR; also called PSD-95-PDZ3; WT-PDZ3; source: E. coli BL21/DE3, purified
T1 sequence (P31016 302-403): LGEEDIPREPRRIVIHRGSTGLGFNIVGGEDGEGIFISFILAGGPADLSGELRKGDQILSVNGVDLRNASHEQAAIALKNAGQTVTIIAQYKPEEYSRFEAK

[8] = target: T2, Δ10ct-PDZ3 (PSD-95 residues 302-393, without the α3 helix) (UniProt P31016 302-393); test: as above; conditions: both partners purified
T2 construct: PSD-95 third PDZ domain truncated of its ten C-terminal residues (α3 helix), residues 302-393 of the full PSD-95 protein; 15N-labelled for NMR; source: E. coli BL21/DE3, purified
T2 sequence (P31016 302-393, stated change not applied): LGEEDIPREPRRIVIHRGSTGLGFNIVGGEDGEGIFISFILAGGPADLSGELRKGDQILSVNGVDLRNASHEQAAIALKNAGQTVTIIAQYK

For “PSD-95 (DLG4/SAP-90) third PDZ domain, PDZ3, wild type”, the ΔG [1] is listed as -8 kcal/mol, the Kd [2] is listed as 0.45 µM and the ΔG [2] is listed as -8.7 kcal/mol.

In the case of PSD-95 PDZ3 (from UniProt P78352), the Kd [3] is listed as 14 µM, the Kd [4] is listed as 0.45 µM and the Kd [5] is listed as 3.6 µM. The Kd [6] was 1 µM.

B1: KKETAV hexapeptide (peptide)
peptide: KKETAV
notes: residues numbered from 0 (C-terminal Val) to -5 (N-terminal Lys); also called KKETAV ligand; consensus hexapeptide; source: bought: Peptide 2.0 (USA)
In the case of B1, the “stoichiometry N” value [7] is reported as 0.99, the Kd [8] is reported as 3.6 µM and the dH [8] is reported as -8.8 kcal/mol. For the same molecule, the “stoichiometry N” value [8] was 0.9.
